Target: hAGO2 (human, UniProt Q9UKV8 1-859)
Assay: EMSA

Chain of hAGO2 (Q9UKV8 whole entry): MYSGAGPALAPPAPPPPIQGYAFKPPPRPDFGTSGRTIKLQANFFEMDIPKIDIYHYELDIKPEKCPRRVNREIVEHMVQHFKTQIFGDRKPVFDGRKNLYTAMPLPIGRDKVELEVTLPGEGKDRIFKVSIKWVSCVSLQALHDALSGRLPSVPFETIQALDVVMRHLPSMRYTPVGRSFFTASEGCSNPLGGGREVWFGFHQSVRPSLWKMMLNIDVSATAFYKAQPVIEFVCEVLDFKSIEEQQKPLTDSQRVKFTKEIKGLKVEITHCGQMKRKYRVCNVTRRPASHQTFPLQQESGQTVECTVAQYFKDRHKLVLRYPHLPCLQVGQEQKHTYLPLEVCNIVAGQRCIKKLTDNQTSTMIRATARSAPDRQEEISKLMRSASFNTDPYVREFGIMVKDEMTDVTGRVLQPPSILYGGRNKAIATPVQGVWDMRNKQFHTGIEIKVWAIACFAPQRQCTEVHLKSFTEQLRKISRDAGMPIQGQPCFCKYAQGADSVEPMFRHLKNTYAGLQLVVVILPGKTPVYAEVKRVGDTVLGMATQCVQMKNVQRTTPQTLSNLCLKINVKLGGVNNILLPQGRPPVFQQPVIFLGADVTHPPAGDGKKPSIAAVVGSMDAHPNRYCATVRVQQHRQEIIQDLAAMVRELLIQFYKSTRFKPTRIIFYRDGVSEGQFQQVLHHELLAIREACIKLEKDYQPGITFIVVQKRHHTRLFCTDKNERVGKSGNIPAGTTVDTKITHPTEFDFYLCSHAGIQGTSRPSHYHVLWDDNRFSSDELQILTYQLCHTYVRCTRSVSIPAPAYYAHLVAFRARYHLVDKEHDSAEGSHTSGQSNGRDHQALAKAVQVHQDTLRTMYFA

B1: 5'Cy5-HIS-SARS2-1 DNA-RNA hybrid (DNA:RNA)
DNA: AGCCTTTACCTCCATTAGCATAGACA
RNA: UGUCUAUGCUAAUGGAGGUAAAGGCU
Does B1 bind?
Result: binds
